Measured values published in paper PMC4091638.

T1: Mmm1-SOG (miniSOG fused to the cytosolic face of Mmm1) (S. cerevisiae), P41800
T1 chain: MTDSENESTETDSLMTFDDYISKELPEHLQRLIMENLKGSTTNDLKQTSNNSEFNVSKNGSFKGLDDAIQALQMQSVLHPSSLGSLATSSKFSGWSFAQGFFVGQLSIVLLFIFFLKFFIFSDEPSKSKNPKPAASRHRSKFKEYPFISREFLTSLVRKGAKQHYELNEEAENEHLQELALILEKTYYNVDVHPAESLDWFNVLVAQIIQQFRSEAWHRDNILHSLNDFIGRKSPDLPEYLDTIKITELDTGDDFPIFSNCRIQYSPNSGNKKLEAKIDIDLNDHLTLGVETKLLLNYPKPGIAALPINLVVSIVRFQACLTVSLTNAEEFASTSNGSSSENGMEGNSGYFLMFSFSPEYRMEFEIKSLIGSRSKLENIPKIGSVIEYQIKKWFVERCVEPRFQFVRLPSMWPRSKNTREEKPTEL


Biological target: T1, Mmm1-SOG (miniSOG fused to the …)
Assay: singlet oxygen triplet energy transfer
Conditions: remark: other sources report otherwise

STET signal | Binder
0.082 s⁻¹ | Mdm34-SOS (IFP1.4 fused to the cytosolic face of Mdm34), P53083 1-459 (natural protein) MSFRFNEAVFGDNSFNERIREKLSTALNSPSKKKLDILKSGIKVQKVDFPTIPQLEILDLDIITQPKSLAKGICKISCKDAMLRIQTVIESNLLLINEQDTPSFTMPQLINNGSFTIPITMTFSSIELEAITNIFVKNPGIGISFNDVDLDFKFDCSVKILQSTIERRLKESMHVVFKDVLPSLIFNTSQNWFTNRGESTSTIPGKREHHHQQTTMSRNVILDGSDFQELSPINMLRLSSIVSSRSTLSLHSTVMNSLSAIPGCLERQNLYRFISRMPSLNNYYSSQSFPQPKSSTVSSKQLVKPFYCSHNLLPKTVLDSSQYDLATITKIQSRLFDRSNSNDDNAKPRRRKIKCKKTRTPSNLQSQGEQAVDDSTAIETVTSTPVQTPIPELEEQSPPYLKTTVSIRDKYVIPEKISLNLDSKKDTSKKKPFYFIGLNSQEPSNNWKWGMEDSPPPYH
0.052 s⁻¹ | SOS-Mdm34 (IFP1.4 fused to the N-terminus of Mdm34, facing the intermembrane space), P53083 1-459 (natural protein) MSFRFNEAVFGDNSFNERIREKLSTALNSPSKKKLDILKSGIKVQKVDFPTIPQLEILDLDIITQPKSLAKGICKISCKDAMLRIQTVIESNLLLINEQDTPSFTMPQLINNGSFTIPITMTFSSIELEAITNIFVKNPGIGISFNDVDLDFKFDCSVKILQSTIERRLKESMHVVFKDVLPSLIFNTSQNWFTNRGESTSTIPGKREHHHQQTTMSRNVILDGSDFQELSPINMLRLSSIVSSRSTLSLHSTVMNSLSAIPGCLERQNLYRFISRMPSLNNYYSSQSFPQPKSSTVSSKQLVKPFYCSHNLLPKTVLDSSQYDLATITKIQSRLFDRSNSNDDNAKPRRRKIKCKKTRTPSNLQSQGEQAVDDSTAIETVTSTPVQTPIPELEEQSPPYLKTTVSIRDKYVIPEKISLNLDSKKDTSKKKPFYFIGLNSQEPSNNWKWGMEDSPPPYH
